Experimental findings from PMC7042382 (2020) are described below.

The assay addresses HIV-1 Gag protein peptide on HLA-B*57:01 (human). In words: multimer staining.

B1: A16.1 (TCR)
alpha TRAV4 TRAJ9 CDR3: CLVGEVRGGFKTIF
beta TRBV4-3 TRBJ2-5 CDR3: CASSQARGGAETQYF
In the case of B1, the binding result is given as “recognises”.

B2: A16.2 (TCR)
alpha TRAV4 TRAJ20 CDR3: CLVGGEDYKLSF
beta TRBV4-3 TRBJ2-5 CDR3: CASSQARGGAETQYF
Consider B2, for which the binding result is recorded as “recognises”.
